± gives the standard deviation of the averaged measurements.
B1: library; a variant is named by its letters at N, in order (parent)
chain: GCUGUCACCGGUGCUUGGUACGUUAUAUUCAGCCGGUCUGAUGAGUCUNNNNNNAGACGAAACAGC

What was measured:
(6R,S)-folinic acid [1] = variants of: B1; test: normalized RNA/DNA level without ligand (relative to sTRSVctl = 100) (log10 (% of sTRSVctl)); HEK293T overexpressing SLC46A1; higher = less ribozyme self-cleavage, higher mRNA level; conditions: without (6R,S)-folinic acid; ligand present: no
Outline: (§1)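 Library plasmids encoding reporter-linked ribozyme switches (mCherry, or eGFP for some folinic acid experiments) were transfected into HEK293T at 4 µg per 6-well well. Ligand, when used, was added 1 h before transfection. Total RNA was extracted with EDTA 72 h later, then reverse-transcribed, amplified, barcoded and sequenced. RNA level was RNA reads over DNA reads, divided by a spiked-in non-cleaving control (or the top 25 sequences), ×100, log10; only sequences with ≥100 DNA reads were kept.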

(6R,S)-folinic acid [2] = variants of: B1; test: normalized RNA/DNA level with ligand (relative to sTRSVctl = 100) (log10 (% of sTRSVctl)); HEK293T overexpressing SLC46A1; ligand concentration (+) RNA-Seq: 6 mM; higher = less ribozyme self-cleavage, higher mRNA level; conditions: with (6R,S)-folinic acid; ligand present: yes
Outline: as §1

Row | Variant | normalized RNA/DNA level without ligand (log10) ((6R,S)-folinic acid [1]) | normalized RNA/DNA level with ligand (log10) ((6R,S)-folinic acid [2])
1 | GCUGUCACCGGUGCUUGGUACGUUAUAUUCAGCCGGUCUGAUGAGUCUGCAAGCAGACGAAACAGC [GCAAGC] | 2.011 ± 0.0087 | 2.023 ± 0.014
2 | GCUGUCACCGGUGCUUGGUACGUUAUAUUCAGCCGGUCUGAUGAGUCUGCAAGUAGACGAAACAGC [GCAAGU] | 2.009 ± 0.012 | 2.023 ± 0.02
3 | GCUGUCACCGGUGCUUGGUACGUUAUAUUCAGCCGGUCUGAUGAGUCUCAUUUCAGACGAAACAGC [CAUUUC] | 2.036 ± 0.0064 | 2 ± 0.037
4 | GCUGUCACCGGUGCUUGGUACGUUAUAUUCAGCCGGUCUGAUGAGUCUCAUUUAAGACGAAACAGC [CAUUUA] | 1.97 ± 0.013 | 1.999 ± 0.013
5 | GCUGUCACCGGUGCUUGGUACGUUAUAUUCAGCCGGUCUGAUGAGUCUACAAGAAGACGAAACAGC [ACAAGA] | 1.974 ± 0.0046 | 2.02 ± 0.031
6 | GCUGUCACCGGUGCUUGGUACGUUAUAUUCAGCCGGUCUGAUGAGUCUACAAGCAGACGAAACAGC [ACAAGC] | 2.033 ± 0.01 | 2.02 ± 0.04
7 | GCUGUCACCGGUGCUUGGUACGUUAUAUUCAGCCGGUCUGAUGAGUCUACAAGUAGACGAAACAGC [ACAAGU] | 2.022 ± 0.0081 | 2.02 ± 0.028
8 | GCUGUCACCGGUGCUUGGUACGUUAUAUUCAGCCGGUCUGAUGAGUCUGCAAAUAGACGAAACAGC [GCAAAU] | 2 ± 0.022 | 2.03 ± 0.03
9 | GCUGUCACCGGUGCUUGGUACGUUAUAUUCAGCCGGUCUGAUGAGUCUGCAAACAGACGAAACAGC [GCAAAC] | 1.974 ± 0.0046 | 2.02 ± 0.023
10 | GCUGUCACCGGUGCUUGGUACGUUAUAUUCAGCCGGUCUGAUGAGUCUGCAAAGAGACGAAACAGC [GCAAAG] | 1.95 ± 0.0068 | 2.018 ± 0.012
11 | GCUGUCACCGGUGCUUGGUACGUUAUAUUCAGCCGGUCUGAUGAGUCUUCAACAAGACGAAACAGC [UCAACA] | 1.987 ± 0.0049 | 2.017 ± 0.018
12 | GCUGUCACCGGUGCUUGGUACGUUAUAUUCAGCCGGUCUGAUGAGUCUUCAACGAGACGAAACAGC [UCAACG] | 1.909 ± 0.0028 | 2 ± 0.034
13 | GCUGUCACCGGUGCUUGGUACGUUAUAUUCAGCCGGUCUGAUGAGUCUUAUUUAAGACGAAACAGC [UAUUUA] | 1.98 ± 0.024 | 2.01 ± 0.021
14 | GCUGUCACCGGUGCUUGGUACGUUAUAUUCAGCCGGUCUGAUGAGUCUACAAAUAGACGAAACAGC [ACAAAU] | 1.952 ± 0.015 | 2.01 ± 0.053
15 | GCUGUCACCGGUGCUUGGUACGUUAUAUUCAGCCGGUCUGAUGAGUCUACAAAAAGACGAAACAGC [ACAAAA] | 1.97 ± 0.0049 | 1.99 ± 0.033
16 | GCUGUCACCGGUGCUUGGUACGUUAUAUUCAGCCGGUCUGAUGAGUCUACAACCAGACGAAACAGC [ACAACC] | 2.035 ± 0.0087 | 2.03 ± 0.025
17 | GCUGUCACCGGUGCUUGGUACGUUAUAUUCAGCCGGUCUGAUGAGUCUACAACUAGACGAAACAGC [ACAACU] | 2.014 ± 0.0094 | 2.03 ± 0.045
18 | GCUGUCACCGGUGCUUGGUACGUUAUAUUCAGCCGGUCUGAUGAGUCUACAACGAGACGAAACAGC [ACAACG] | 1.991 ± 0.019 | 2.06 ± 0.021
19 | GCUGUCACCGGUGCUUGGUACGUUAUAUUCAGCCGGUCUGAUGAGUCUCCAAAUAGACGAAACAGC [CCAAAU] | 1.963 ± 0.013 | 2 ± 0.035
20 | GCUGUCACCGGUGCUUGGUACGUUAUAUUCAGCCGGUCUGAUGAGUCUCCAAAGAGACGAAACAGC [CCAAAG] | 1.899 ± 0.0025 | 1.99 ± 0.025
21 | GCUGUCACCGGUGCUUGGUACGUUAUAUUCAGCCGGUCUGAUGAGUCUCCAAACAGACGAAACAGC [CCAAAC] | 2.017 ± 0.015 | 2.03 ± 0.044

Row | Variant | normalized RNA/DNA level without ligand (log10) ((6R,S)-folinic acid [1]) | normalized RNA/DNA level with ligand (log10) ((6R,S)-folinic acid [2])
22 | GCUGUCACCGGUGCUUGGUACGUUAUAUUCAGCCGGUCUGAUGAGUCUCCAACGAGACGAAACAGC [CCAACG] | 2.0184 ± 0.002 | 2.01 ± 0.041
23 | GCUGUCACCGGUGCUUGGUACGUUAUAUUCAGCCGGUCUGAUGAGUCUCCAACAAGACGAAACAGC [CCAACA] | 2.033 ± 0.011 | 2 ± 0.047
24 | GCUGUCACCGGUGCUUGGUACGUUAUAUUCAGCCGGUCUGAUGAGUCUCCAACCAGACGAAACAGC [CCAACC] | 2.027 ± 0.016 | 1.99 ± 0.042
25 | GCUGUCACCGGUGCUUGGUACGUUAUAUUCAGCCGGUCUGAUGAGUCUCCAACUAGACGAAACAGC [CCAACU] | 2.049 ± 0.0064 | 2.053 ± 0.02
26 | GCUGUCACCGGUGCUUGGUACGUUAUAUUCAGCCGGUCUGAUGAGUCUGCAACGAGACGAAACAGC [GCAACG] | 1.982 ± 0.0082 | 2.014 ± 0.02
27 | GCUGUCACCGGUGCUUGGUACGUUAUAUUCAGCCGGUCUGAUGAGUCUGCAACCAGACGAAACAGC [GCAACC] | 2.033 ± 0.0054 | 2.019 ± 0.019
28 | GCUGUCACCGGUGCUUGGUACGUUAUAUUCAGCCGGUCUGAUGAGUCUGCAACAAGACGAAACAGC [GCAACA] | 2.058 ± 0.0047 | 2.05 ± 0.038
29 | GCUGUCACCGGUGCUUGGUACGUUAUAUUCAGCCGGUCUGAUGAGUCUAAUUUCAGACGAAACAGC [AAUUUC] | 2.031 ± 0.0025 | 2.01 ± 0.049
30 | GCUGUCACCGGUGCUUGGUACGUUAUAUUCAGCCGGUCUGAUGAGUCUAAUUUAAGACGAAACAGC [AAUUUA] | 1.966 ± 0.012 | 1.99 ± 0.02
31 | GCUGUCACCGGUGCUUGGUACGUUAUAUUCAGCCGGUCUGAUGAGUCUCCAAGCAGACGAAACAGC [CCAAGC] | 2.098 ± 0.0093 | 2.0623 ± 0.001
32 | GCUGUCACCGGUGCUUGGUACGUUAUAUUCAGCCGGUCUGAUGAGUCUCCAAGAAGACGAAACAGC [CCAAGA] | 2.0052 ± 0.00077 | 2.038 ± 0.0056
33 | GCUGUCACCGGUGCUUGGUACGUUAUAUUCAGCCGGUCUGAUGAGUCUCCAAGGAGACGAAACAGC [CCAAGG] | 2 ± 0.0033 | 1.991 ± 0.014
34 | GCUGUCACCGGUGCUUGGUACGUUAUAUUCAGCCGGUCUGAUGAGUCUGAUUUUAGACGAAACAGC [GAUUUU] | 2.011 ± 0.0062 | 2.026 ± 0.0072
35 | GCUGUCACCGGUGCUUGGUACGUUAUAUUCAGCCGGUCUGAUGAGUCUGAUUUGAGACGAAACAGC [GAUUUG] | 1.95 ± 0.023 | 2.03 ± 0.047
36 | GCUGUCACCGGUGCUUGGUACGUUAUAUUCAGCCGGUCUGAUGAGUCUGAUUUCAGACGAAACAGC [GAUUUC] | 2.055 ± 0.017 | 2 ± 0.03
37 | GCUGUCACCGGUGCUUGGUACGUUAUAUUCAGCCGGUCUGAUGAGUCUUCAAAUAGACGAAACAGC [UCAAAU] | 1.96 ± 0.017 | 2.004 ± 0.017
38 | GCUGUCACCGGUGCUUGGUACGUUAUAUUCAGCCGGUCUGAUGAGUCUUCAAAGAGACGAAACAGC [UCAAAG] | 1.817 ± 0.0038 | 1.98 ± 0.032
39 | GCUGUCACCGGUGCUUGGUACGUUAUAUUCAGCCGGUCUGAUGAGUCUCAUUGUAGACGAAACAGC [CAUUGU] | 2.012 ± 0.0069 | 2.02 ± 0.064
40 | GCUGUCACCGGUGCUUGGUACGUUAUAUUCAGCCGGUCUGAUGAGUCUUAUUGUAGACGAAACAGC [UAUUGU] | 1.888 ± 0.012 | 2.005 ± 0.017
41 | GCUGUCACCGGUGCUUGGUACGUUAUAUUCAGCCGGUCUGAUGAGUCUUCAAGGAGACGAAACAGC [UCAAGG] | 1.96 ± 0.023 | 2 ± 0.033

Source: the supplement of paper PMC6757056
